The Human Domainome abundance scans (Beltran et al. 2025)
± gives the uncertainty stated by the source.

B1: TOX high mobility group box family member 3, residues 256 to 323; numbered along this chain, O15405 (parent)
chain: QKPVSAYALFFRDTQAAIKGQNPNATFGEVSKIVASMWDSLGEEQKQVYKRKTEAAKKEYLKALAAYR

Variants of: B1
Experiment: abundance fitness (aPCA) (normalised: wild type 0, dead -1); higher = more abundant; growth selection in yeast, the domain comes from the species named
Conditions: Homo sapiens

G20M and G20K are within error of each other in abundance fitness: -0.222 ± 0.18 for the first, -0.129 ± 0.11 for the second.

G20C and K58N are within error of each other in abundance fitness: -0.116 ± 0.061 for the first, -0.089 ± 0.088 for the second.

K58Q and K58R are within error of each other in abundance fitness: 0.039 ± 0.072 for the first, -0.043 ± 0.049 for the second.

K58D and K58P are within error of each other in abundance fitness: -0.01 ± 0.094 for the first, -0.113 ± 0.064 for the second.

K58H and K58M are within error of each other in abundance fitness: -0.242 ± 0.15 for the first, -0.078 ± 0.066 for the second.

First: K58V
Second: Q21L
The abundance fitness of the first is higher: 0.03 ± 0.061 for the first, -0.219 ± 0.056 for the second.

Compared with Q21H, Q21N is higher in abundance fitness: -0.175 ± 0.082 for the first, 0.048 ± 0.077 for the second.

Q21C and Q21D are within error of each other in abundance fitness: -0.256 ± 0.13 for the first, -0.126 ± 0.092 for the second.

Q21V and A16C are within error of each other in abundance fitness: -0.321 ± 0.069 for the first, -0.376 ± 0.086 for the second.

First: A16Q
Second: A16N
The abundance fitness of the first is lower: -0.133 ± 0.077 for the first, 0.078 ± 0.13 for the second.

First: A16P
Second: A16G
The abundance fitness of the first is higher: 0.067 ± 0.063 for the first, -0.209 ± 0.074 for the second.

F10W and F10N are within error of each other in abundance fitness: -0.957 ± 0.2 for the first, -0.916 ± 0.45 for the second.

F10R and F10P are within error of each other in abundance fitness: -0.751 ± 0.1 for the first, -0.572 ± 0.28 for the second.

First: R12D
Second: R12A
The abundance fitness of the first is lower: -0.526 ± 0.23 for the first, -0.116 ± 0.078 for the second.

Going from R12S to L61V, the abundance fitness rises from -0.113 ± 0.064 to 0.119 ± 0.059.

Compared with L61T, L61W is lower in abundance fitness: 0.135 ± 0.065 for the first, -0.19 ± 0.08 for the second.

L61Y and L61R are within error of each other in abundance fitness: -0.087 ± 0.099 for the first, 0.015 ± 0.045 for the second.

Compared with L61C, L61H is higher in abundance fitness: -0.014 ± 0.085 for the first, 0.134 ± 0.034 for the second.

L61N and V34A are within error of each other in abundance fitness: -0.068 ± 0.13 for the first, -0.012 ± 0.05 for the second.

V34L and V34T are within error of each other in abundance fitness: -0.529 ± 0.069 for the first, -0.444 ± 0.11 for the second.

Compared with V34E, V34I is higher in abundance fitness: -0.963 ± 0.17 for the first, -0.149 ± 0.09 for the second.

First: V34M
Second: A55C
The abundance fitness of the first is lower: -0.443 ± 0.092 for the first, -0.246 ± 0.095 for the second.

Compared with A55P, A55T is higher in abundance fitness: -0.157 ± 0.051 for the first, -0.041 ± 0.064 for the second.

K46H and K46F are within error of each other in abundance fitness: -0.836 ± 0.24 for the first, -0.913 ± 0.19 for the second.

First: K46W
Second: K46Q
The abundance fitness of the first is lower: -0.988 ± 0.24 for the first, -0.08 ± 0.083 for the second.

K46D and K46S are within error of each other in abundance fitness: -0.678 ± 0.13 for the first, -0.811 ± 0.12 for the second.

First: K46T
Second: A6G
The abundance fitness of the first is lower: -0.395 ± 0.11 for the first, -0.168 ± 0.079 for the second.

Compared with A6V, A6L is higher in abundance fitness: -0.601 ± 0.084 for the first, -0.37 ± 0.086 for the second.

A6R and A6T are within error of each other in abundance fitness: -0.808 ± 0.1 for the first, -0.6 ± 0.18 for the second.

Going from S31L to S31R, the abundance fitness rises from -0.637 ± 0.073 to -0.062 ± 0.047.

S31T and E54Q are within error of each other in abundance fitness: -0.118 ± 0.08 for the first, -0.158 ± 0.07 for the second.

E54G and E54W are within error of each other in abundance fitness: -0.328 ± 0.046 for the first, -0.331 ± 0.067 for the second.

Compared with E54V, A8V is higher in abundance fitness: -0.239 ± 0.053 for the first, -0.123 ± 0.056 for the second.

A8D and A8G are within error of each other in abundance fitness: 0.039 ± 0.15 for the first, -0.179 ± 0.17 for the second.

A8W and A8E are within error of each other in abundance fitness: -0.252 ± 0.098 for the first, -0.376 ± 0.18 for the second.

A8P and V30W are within error of each other in abundance fitness: -0.464 ± 0.12 for the first, -0.319 ± 0.074 for the second.

Compared with V30S, V30R is higher in abundance fitness: -0.635 ± 0.099 for the first, -0.43 ± 0.062 for the second.

Going from V30M to V30P, the abundance fitness falls from -0.162 ± 0.1 to -0.776 ± 0.25.

P23H and P23D are within error of each other in abundance fitness: -0.615 ± 0.14 for the first, -0.922 ± 0.39 for the second.

Going from P23T to P23A, the abundance fitness rises from -0.898 ± 0.23 to -0.32 ± 0.084.

Compared with P23R, P23M is lower in abundance fitness: -0.454 ± 0.056 for the first, -0.743 ± 0.13 for the second.

A25M and A25Q are within error of each other in abundance fitness: -0.212 ± 0.086 for the first, -0.328 ± 0.13 for the second.

A25H and S36C are within error of each other in abundance fitness: -0.299 ± 0.084 for the first, -0.317 ± 0.24 for the second.

S36Y and S36I are within error of each other in abundance fitness: -0.182 ± 0.08 for the first, -0.191 ± 0.094 for the second.

Going from S36R to K32I, the abundance fitness falls from -0.114 ± 0.056 to -0.416 ± 0.14.

Compared with K32M, K32T is higher in abundance fitness: -0.198 ± 0.069 for the first, -0.055 ± 0.065 for the second.

First: K32Y
Second: K32R
The abundance fitness of the first is lower: -0.662 ± 0.14 for the first, -0.045 ± 0.057 for the second.

A56S and A56I are within error of each other in abundance fitness: -0.146 ± 0.052 for the first, -0.167 ± 0.21 for the second.

A56R and A56P are within error of each other in abundance fitness: -0.201 ± 0.054 for the first, -0.233 ± 0.086 for the second.

M37A and M37E are within error of each other in abundance fitness: -0.063 ± 0.071 for the first, -0.104 ± 0.065 for the second.

M37R and M37N are within error of each other in abundance fitness: 0.013 ± 0.042 for the first, -0.114 ± 0.13 for the second.

Compared with M37D, M37C is higher in abundance fitness: -0.488 ± 0.16 for the first, -0.186 ± 0.084 for the second.

Q47G and Q47V are within error of each other in abundance fitness: -0.103 ± 0.05 for the first, -0.033 ± 0.086 for the second.

Going from Q47P to Q47R, the abundance fitness rises from -0.812 ± 0.12 to -0.032 ± 0.037.

Q47I and Q47H are within error of each other in abundance fitness: -0.498 ± 0.49 for the first, -0.232 ± 0.1 for the second.

Going from E59V to E59D, the abundance fitness rises from -0.3 ± 0.071 to 0.047 ± 0.11.

E59S and E59G are within error of each other in abundance fitness: -0.166 ± 0.068 for the first, -0.242 ± 0.071 for the second.

E59C and E59M are within error of each other in abundance fitness: -0.366 ± 0.15 for the first, -0.51 ± 0.16 for the second.

First: E59K
Second: E59F
The abundance fitness of the first is higher: 0.024 ± 0.084 for the first, -0.443 ± 0.14 for the second.

First: E59W
Second: E59R
The abundance fitness of the first is lower: -0.573 ± 0.085 for the first, -0.162 ± 0.053 for the second.

Going from E59P to L9R, the abundance fitness falls from -0.061 ± 0.085 to -0.498 ± 0.1.

L9A and L9T are within error of each other in abundance fitness: -0.042 ± 0.064 for the first, -0.039 ± 0.084 for the second.

Compared with L9G, L9I is higher in abundance fitness: -0.303 ± 0.083 for the first, 0.233 ± 0.13 for the second.

L9C and L9F are within error of each other in abundance fitness: -0.106 ± 0.1 for the first, -0.31 ± 0.11 for the second.

L9M and N24D are within error of each other in abundance fitness: -0.035 ± 0.081 for the first, -0.055 ± 0.091 for the second.

Going from N24F to N24W, the abundance fitness falls from -0.154 ± 0.074 to -0.509 ± 0.091.

Going from N24Q to S5G, the abundance fitness rises from -0.353 ± 0.088 to -0.091 ± 0.052.

Going from S5V to S5E, the abundance fitness rises from -0.693 ± 0.1 to -0.022 ± 0.066.

Compared with S5Q, S5N is higher in abundance fitness: -0.527 ± 0.28 for the first, 0.115 ± 0.16 for the second.

L64K and L64V are within error of each other in abundance fitness: 0.205 ± 0.06 for the first, 0.131 ± 0.05 for the second.

Going from L64D to L64R, the abundance fitness falls from 0.323 ± 0.076 to 0.088 ± 0.054.

L64A and T14V are within error of each other in abundance fitness: -0.093 ± 0.093 for the first, -0.147 ± 0.062 for the second.

Compared with T14K, T14W is lower in abundance fitness: 0.066 ± 0.077 for the first, -0.364 ± 0.067 for the second.

Compared with K62V, K62E is higher in abundance fitness: -0.458 ± 0.059 for the first, -0.006 ± 0.059 for the second.

K62S and K62Q are within error of each other in abundance fitness: -0.092 ± 0.043 for the first, -0.118 ± 0.07 for the second.

First: K62L
Second: Q45K
The abundance fitness of the first is lower: -0.344 ± 0.049 for the first, 0.037 ± 0.088 for the second.

Q45V and Q45A are within error of each other in abundance fitness: -0.278 ± 0.079 for the first, -0.154 ± 0.075 for the second.

Q45P and Q45W are within error of each other in abundance fitness: -0.546 ± 0.066 for the first, -0.642 ± 0.095 for the second.

Going from Q45T to Q45C, the abundance fitness falls from -0.114 ± 0.098 to -0.486 ± 0.087.

Going from Q45E to Q45M, the abundance fitness falls from 0.092 ± 0.13 to -0.431 ± 0.098.

Compared with Q45F, T26Y is lower in abundance fitness: -0.339 ± 0.091 for the first, -0.957 ± 0.26 for the second.

Going from N22Y to N22E, the abundance fitness falls from -0.121 ± 0.11 to -0.443 ± 0.14.

Going from N22K to N22P, the abundance fitness falls from -0.382 ± 0.13 to -0.824 ± 0.28.

Work on N22F yielded an abundance fitness of -0.298 ± 0.12.
